# Reference: US20130280279A1, “PHARMACEUTICAL COMPOSITION OF A COMPLEX OF AN ANTI-DIG ANTIBODY AND DIGOXIGENIN THAT IS CONJUGATED TO A PEPTIDE” (HOFFMANN-LA ROCHE INC., priority 2011, published 2013)
# *1 amine or outer side, *2 acyl side, *3 side chain or, on linkers, in order; H or OH if unused. Where a SMILES comes first, the peptide text is derived from it. Primed or numbered codes have the meaning given here. Where no end group is shown, it is not given here. [ ]: non-standard residue; d: D form. The star is where a group is joined. Pqa = 4-oxo-6-(1-piperazinyl)-3(4H)-quinazoline-acetic acid (CAS 889958-08-1), O=C(Cn1cnc2ccc(N3CCN([*:1])CC3)cc2c1=O)[*:2]; Pqa″ = 4-oxo-6-(1-piperazinyl)-3(4H)-quinazoline-acetic acid, O=C(Cn1cnc2ccc(N3CCN([*:1])CC3)cc2c1=O)[*:2]; Tyr(2,6-F2) = N[C@@H](Cc1c(F)cc(O)cc1F)C(=O)O; NMeR = CN[C@@H](CCCNC(=N)N)C(=O)O; Piv = CC(C)(C)C(=O)*; Bz = O=C(c1ccccc1)*
# System: H322M cells
# Test: CytoTox-Glo cytotoxicity assay
# Format: cell-based, human
# Settings: CytoTox-Glo
# Description: To evaluate whether additions or alterations of the peptide Melittin, FALLv1 and FALLv2 by digoxygenin alters its biological activity, we performed in vitro assays. As these peptides are cytotoxic, their biological activity can easily be analyzed by monitoring the number of dead cells. To measure this number, the CytoTox-Glo assay (Promega Madison, WI) was used. Table 2 lists results of these CytoTox-Glo-assays that were performed to assess the biological activity of the Melittin, Fallv1 and Fallv2 peptides and their DIG-modified variants. For these assays, H322M cells were seeded at a density of 15.000 cells per well in 96 well plates. The cells were incubated for 24 hours at 37° C., 5% CO2 and 85% humidity in RPMI with 10% FCS, Na+ Pyrovate, L-Glutamine and NEAA mix. The peptide and it's DIG-modified variant were then added to the cells in the concentrations indicated. The cells were incubated for further 48 hours. After this period, the cells were treated with the CytoTox-Glo-assay reagent according to the manufacturers instructions. In brief, this assay detects dead cells via the presence of a protease in the medium that cleaves a […] peptide in the reagent. The luminescence of this assay therefore represents dead cells. The 96 well plates were then analyzed in a InfiniteF200 luminescence reader (Tecan Austria, Groding). […] Not only covalent coupling to haptens, but also complexation of peptides to large antibody molecules may influence their biological activity. Because IgG-derived molecules are large proteins (10-40 fold the size of peptides), it cannot a priori be excluded that such molecules may sterically hinder accessibility of peptide and therefore interfere with biological activity. To address this topic, we analyzed the in vitro activity of peptide-antibody complexes for the cytotoxic peptides FALLv1 and Fam5b. Again, we made use of the fact that these peptide are cytotoxic towards tumor cell lines and therefore tested their functionality in cytotoxicity and viability assays as described above. […] Moreover, utilizing bispecific antibodies for targeting such peptides to tumor cells, we could show increased peptide-mediated cytotoxicity towards targeted cells compared to nontargeted cells (as shown in PCT/EP2010/004051).
row,Molecule,activity upon conjugation to digoxygenin
1,CC[C@H](C)[C@H](NC(=O)[C@H](CCCCN)NC(=O)[C@H](CCC(=O)O)NC(=O)[C@H](CCCCN)NC(=O)[C@H](CO)NC(=O)[C@H](CCCCN)NC(=O)[C@H](CCCNC(=N)N)NC(=O)[C@H](Cc1ccccc1)NC(=O)[C@H](Cc1ccccc1)NC(=O)[C@H](CC(=O)O)NC(=O)CNC(=O)[C@H](CC(C)C)NC(=O)[C@H](CC(C)C)NC(=O)[C@H](C)NC(=O)[C@H](Cc1ccccc1)NC(=O)[C@H](CCCNC(=N)N)NC(=O)[C@H](CCCCN)NC(=O)[C@@H](N)CC(N)=O)C(=O)NCC(=O)N[C@@H](CCCCN)C(=O)N[C@@H](CCC(=O)O)C(=O)N[C@@H](Cc1ccccc1)C(=O)N[C@@H](CCCCN)C(=O)N[C@@H](CCCNC(=N)N)C(=O)N[C@H](C(=O)N[C@H](C(=O)N[C@@H](CCC(N)=O)C(=O)N[C@@H](CCCNC(=N)N)C(=O)N[C@H](C(=O)N[C@@H](CCCCN)C(=O)N[C@@H](CC(=O)O)C(=O)N[C@@H](Cc1ccccc1)C(=O)N[C@@H](CC(C)C)C(=O)N[C@@H](CCCNC(=N)N)C(=O)N[C@@H](CC(N)=O)C(=O)N[C@@H](CC(C)C)C(=O)N[C@H](C(=O)N1CCC[C@H]1C(=O)N[C@@H](CCCNC(=N)N)C(N)=O)C(C)C)[C@@H](C)CC)C(C)C)[C@@H](C)CC [FALLv2] (H-NKRFALLGDFFRKSKEKIGKEFKRIVQRIKDFLRNLVPR-NH2; N-terminus and C-terminus assumed),similarly retained
2,CC[C@H](C)[C@H](NC(=O)[C@H](CCCCN)NC(=O)[C@H](CCC(=O)O)NC(=O)[C@H](CCCCN)NC(=O)[C@H](CO)NC(=O)[C@H](CCCCN)NC(=O)[C@H](CCCNC(=N)N)NC(=O)[C@H](Cc1ccccc1)NC(=O)[C@H](Cc1ccccc1)NC(=O)[C@H](CC(=O)O)NC(=O)CNC(=O)[C@H](CC(C)C)NC(=O)[C@H](CC(C)C)NC(=O)[C@H](C)NC(=O)[C@@H](N)Cc1ccccc1)C(=O)NCC(=O)N[C@@H](CCCCN)C(=O)N[C@@H](CCC(=O)O)C(=O)N[C@@H](Cc1ccccc1)C(=O)N[C@@H](CCCCN)C(=O)N[C@@H](CCCNC(=N)N)C(=O)N[C@H](C(=O)N[C@H](C(=O)N[C@@H](CCC(N)=O)C(=O)N[C@@H](CCCNC(=N)N)C(=O)N[C@H](C(=O)N[C@@H](CCCCN)C(=O)N[C@@H](CC(=O)O)C(=O)N[C@@H](Cc1ccccc1)C(=O)N[C@@H](CC(C)C)C(=O)N[C@@H](CCCNC(=N)N)C(=O)N[C@@H](CC(N)=O)C(=O)N[C@@H](CC(C)C)C(=O)N[C@H](C(=O)N1CCC[C@H]1C(=O)N[C@@H](CCCNC(=N)N)C(=O)N[C@H](C(=O)N[C@@H](CCC(=O)O)C(=O)N[C@@H](CO)C(N)=O)[C@@H](C)O)C(C)C)[C@@H](C)CC)C(C)C)[C@@H](C)CC [FALLv1],similarly retained

# Same assay, conditions: cytotoxicity and viability assays, tumor cell lines
row,Molecule,biological activity of digoxigenated peptide complexed with digoxigenin binding antibody derivatives
1,QHRYQQLGAGLKVLFKKTHRILRRLFNLAK (listed as Homo sapiens) [Fam5b],retain their biological activities
2,CC[C@H](C)[C@H](NC(=O)[C@H](CCCCN)NC(=O)[C@H](CCC(=O)O)NC(=O)[C@H](CCCCN)NC(=O)[C@H](CO)NC(=O)[C@H](CCCCN)NC(=O)[C@H](CCCNC(=N)N)NC(=O)[C@H](Cc1ccccc1)NC(=O)[C@H](Cc1ccccc1)NC(=O)[C@H](CC(=O)O)NC(=O)CNC(=O)[C@H](CC(C)C)NC(=O)[C@H](CC(C)C)NC(=O)[C@H](C)NC(=O)[C@@H](N)Cc1ccccc1)C(=O)NCC(=O)N[C@@H](CCCCN)C(=O)N[C@@H](CCC(=O)O)C(=O)N[C@@H](Cc1ccccc1)C(=O)N[C@@H](CCCCN)C(=O)N[C@@H](CCCNC(=N)N)C(=O)N[C@H](C(=O)N[C@H](C(=O)N[C@@H](CCC(N)=O)C(=O)N[C@@H](CCCNC(=N)N)C(=O)N[C@H](C(=O)N[C@@H](CCCCN)C(=O)N[C@@H](CC(=O)O)C(=O)N[C@@H](Cc1ccccc1)C(=O)N[C@@H](CC(C)C)C(=O)N[C@@H](CCCNC(=N)N)C(=O)N[C@@H](CC(N)=O)C(=O)N[C@@H](CC(C)C)C(=O)N[C@H](C(=O)N1CCC[C@H]1C(=O)N[C@@H](CCCNC(=N)N)C(=O)N[C@H](C(=O)N[C@@H](CCC(=O)O)C(=O)N[C@@H](CO)C(N)=O)[C@@H](C)O)C(C)C)[C@@H](C)CC)C(C)C)[C@@H](C)CC [FALLv1],retain their biological activities

# Target: T1, Y2R (Homo sapiens, UniProt P49146)
# T1 sequence (P49146 1-381): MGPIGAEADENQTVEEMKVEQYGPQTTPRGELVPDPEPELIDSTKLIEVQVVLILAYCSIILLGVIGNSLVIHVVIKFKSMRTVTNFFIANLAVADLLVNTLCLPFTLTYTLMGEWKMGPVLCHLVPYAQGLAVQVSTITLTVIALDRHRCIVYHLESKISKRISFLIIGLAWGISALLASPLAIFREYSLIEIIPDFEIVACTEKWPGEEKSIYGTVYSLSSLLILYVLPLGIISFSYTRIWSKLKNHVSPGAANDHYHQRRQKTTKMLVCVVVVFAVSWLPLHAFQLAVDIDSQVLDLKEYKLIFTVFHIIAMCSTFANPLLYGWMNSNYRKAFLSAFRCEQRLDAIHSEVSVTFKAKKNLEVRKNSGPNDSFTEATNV
# Test: not given
# Settings: values of WO 2007/065808; read-out: Y2R EC50 (nM) cAMP; cited from earlier work
row,Molecule,EC50 [nM]
1,IK-Pqa-RHYLNLVTRQ(N-methyl)R(3.4-diC1)Phe [Example 19],1.47
2,IK-Pqa-RHYLNLVTRQ(N-methyl)RW (IK[Pqa]RHYLNLVTRQ[NMeR]W; ends and bridges not checked) [Example 21],1.06
3,IK-Pqa-RHYLNLVTRQ(N-methyl)RCha [Example 20],0.5
4,IK-Pqa-RHYLNLVTRQ(N-methyl)RF(O—CH3) [Example 11],0.55
5,Trimetylacetyl-IK-Pqa-RHYLNWVTRQ(N-methyl)RY (Piv-IK[Pqa″]RHYLNWVTRQ[NMeR]Y) [Example 30],0.26
6,IK-Pqa-RHYLNLVTRQ(N-methyl)R(2-6 di F)Y [Example 9],0.19
7,IK-Pqa-RHYLNLVTRQ(N-methyl)R(1)Nal [Example 22],1.14
8,Cyclohexyl-IK-Pqa-RHYLNWVTRQ(N-methyl)RY (cyclohexyl-IK[Pqa]RHYLNWVTRQ[NMeR]Y; ends and bridges not checked) [Example 31],1.37
9,IK-Pqa-RHYLNLVTRQ (N-methyl)R(3-5 di F)Y [Example 8],0.36
10,IK-Pqa-RHYLNLVTRQ(N-methyl)R(m-)Y [Example 6],1.5
11,IK-Pqa-RHYLNLVTRQ(N-methyl)R(3-F)Phe [Example 17],0.75
12,IK-Pqa-RHYLNLVTRQR-C-α-Me-Tyr [Example 24],1.35
13,IK-Pqa-RHYLNLVTRQ(N-methyl)R(2)Nal [Example 23],2.4
14,Pentyl-IK-Pqa-RHYLNWVTRQ(N-methyl)RY (Pentyl-IK[Pqa″]RHYLNWVTRQ[NMeR]Y) [Example 29],0.51
15,IK-Pqa-RHYLNLVTRQ(N-methyl)RY [Example 5],0.42
16,Adamtyl-IK-Pqa-RHYLNWVTRQ(N-methyl)RY (adamantyl-IK[Pqa]RHYLNWVTRQ[NMeR]Y; ends and bridges not checked) [Example 33],2.9
17,"INle-Pqa-RHYLNWVTRQ(N-methyl)RY (IXXRHYLNWVTRQRY; Nle, Pqa linker, N-methyl Arg) [Example 26]",0.108
18,IK-Pqa-RHYLNLVTRQ(N-methyl)R(4-CF3)Phe [Example 16],3.55
19,"Ac-IK-Pqa-RHYLNWVTRQ(N-methyl)R(2-6 di F)Y (Ac-IK[Pqa]RHYLNWVTRQ[NMeR][Tyr(2,6-F2)]) [Example 27]",0.07
20,"IK-P qa-RHYLNLVTRQ (N-methyl)R(2,3.4,5,6-Penta-F)Phe [Example 18]",2.5
21,IK-Pqa-RHYLNLVTRQ(N-methyl)RF [Example 12],0.69
22,IK-Pqa-RHYLNWVTRQ(N-methyl)RY (IK[Pqa]RHYLNWVTRQ[NMeR]Y; ends and bridges not checked) [Example 25],0.25
23,Benzoyl-IK-Pqa-RHYLNWVTRQ(N-methyl)RY (Bz-IK[Pqa]RHYLNWVTRQ[NMeR]Y; ends and bridges not checked) [Example 32],0.66
